Assay [1] addresses T1, hTAFI (Homo sapiens, UniProt Q96IY4).
T1 sequence (Q96IY4 115-423): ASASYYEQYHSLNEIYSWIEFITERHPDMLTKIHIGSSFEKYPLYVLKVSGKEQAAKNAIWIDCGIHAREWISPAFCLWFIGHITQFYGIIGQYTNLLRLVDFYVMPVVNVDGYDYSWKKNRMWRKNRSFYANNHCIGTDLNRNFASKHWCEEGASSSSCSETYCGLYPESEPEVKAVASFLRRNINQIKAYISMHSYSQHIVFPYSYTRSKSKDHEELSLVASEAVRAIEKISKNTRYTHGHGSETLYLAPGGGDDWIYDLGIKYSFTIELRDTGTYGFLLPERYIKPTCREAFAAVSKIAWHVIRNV
In words: Ki determination, tight-binding inhibition of metallocarboxypeptidase. It is filed as biochemical. The settings on record: tight-binding equation fit; substrate AAFA 0.1mM; enzyme-inhibitor mixture not preincubated; 37 °C; means (n = 3) ± SD. As for the experimental part: Inhibitory activities against CPA- and CPB-type forms (bovine and human variants of CPA1, CPA2, CPA4, CPB1, and TAFI) were assayed for all extracts, subject to the experimental conditions that enzyme (E), substrate (S) and inhibitor (I) concentrations as well as the [I]/[E] ratio and preincubation time followed the requirements for tight-binding inhibitor assays. Similar approaches were followed to measure the activities of proteases of different catalytic types, like pepsin, papain, trypsin and subtilisin [45, 46, 47, 48]. All assays were performed in triplicate at 25 °C in a multiplexed manner. For 96-well assays an iEMS spectrophotometer reader/dispenser FM (Labsystems, Finland) was used with a final reaction volume of 250 μL. […] The reactions were followed at 5 s intervals for 5 min and recorded as initial velocities. […]
The Ki values of natural and recombinant NvCI against bCPA1, hCPA1, hCPA2, rat CPA3, hCPA4, hCPB1, bTAFI, hTAFI, hCPD and hCPZ were determined by measuring the enzymatic residual activity (Vi/V0 = a) at different inhibitor concentrations and using a fixed enzyme and substrate concentrations as described above, where vi and v0 are the fraction of enzymatic activity in the presence and absence of inhibitor, respectively, in terms of initial velocities. […]

Another assay has as its target T2, pCPB (Sus scrofa, UniProt P09955).
T2 sequence (P09955 111-416): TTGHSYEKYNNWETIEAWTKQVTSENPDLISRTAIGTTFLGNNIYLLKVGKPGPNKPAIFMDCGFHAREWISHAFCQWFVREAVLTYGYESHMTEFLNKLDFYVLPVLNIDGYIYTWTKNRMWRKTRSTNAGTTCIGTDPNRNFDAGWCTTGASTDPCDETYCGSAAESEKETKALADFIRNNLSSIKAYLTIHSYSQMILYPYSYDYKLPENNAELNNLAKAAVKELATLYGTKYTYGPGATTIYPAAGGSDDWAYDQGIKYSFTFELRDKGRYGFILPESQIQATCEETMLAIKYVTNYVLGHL
The description is as above. The format is biochemical. Particulars: tight-binding equation fit, equilibrium conditions; substrate AAFA 0.1mM; preincubation 15 min; 37 °C; means (n = 3) ± SD. As for the experimental part: (§1) Inhibitory activities against CPA- and CPB-type forms (bovine and human variants of CPA1, CPA2, CPA4, CPB1, and TAFI) were assayed for all extracts, subject to the experimental conditions that enzyme (E), substrate (S) and inhibitor (I) concentrations as well as the [I]/[E] ratio and preincubation time followed the requirements for tight-binding inhibitor assays. Similar approaches were followed to measure the activities of proteases of different catalytic types, like pepsin, papain, trypsin and subtilisin [45, 46, 47, 48]. All assays were performed in triplicate at 25 °C in a multiplexed manner. For 96-well assays an iEMS spectrophotometer reader/dispenser FM (Labsystems, Finland) was used with a final reaction volume of 250 μL. For cuvette assays, a Cary 400 Bio spectrophotometer (Varian Inc., Palo Alto, CA, USA) spectrophotometer was used with a final reaction volume of 1 ml. The reactions were followed at 5 s intervals for 5 min and recorded as initial velocities. In the protease inhibition assays, mixtures of activity buffer, biological sample and enzyme were preincubated at 25 °C for 10min, before substrate addition. The assay conditions were as follows: for CPA-like enzymes, 7.0nM CPA, 0.1mM AAFP substrate in 20mM Tris-HCl pH 7.5, 500mMNaCl, 1% v/v dimethyl sulfoxide (DMSO), 0.05% w/v BRIJ-35 was used. For CPB-like enzymes, CPB 3.0nM CPB, 0.1mM AAFA substrate and activity buffer of 20 mM Tris-HCl pH [50].
(§2) The Ki values of natural and recombinant NvCI against bCPA1, hCPA1, hCPA2, rat CPA3, hCPA4, hCPB1, bTAFI, hTAFI, hCPD and hCPZ were determined by measuring the enzymatic residual activity (Vi/V0 = a) at different inhibitor concentrations and using a fixed enzyme and substrate concentrations as described above, where vi and v0 are the fraction of enzymatic activity in the presence and absence of inhibitor, respectively, in terms of initial velocities. The determination of Ki values was carried out on equilibrium conditions ([E0]/Ki ≤ 10), using a previously determined preincubation time of 15 min, required to establish enzyme-inhibitor equilibrium. Working temperature was 37 °C. The best estimates of Ki values were obtained by fitting the experimental data to the equation for tight-binding inhibitors by non-linear regression using the GraphPad Prisma 5 software (GraphPad Software, Inc., San Diego, CA, USA) at p < 0.05. The real Ki values against each of these A/B-type MCPs were calculated according to the equation described by Morrison and Copeland [19, 20].

In another assay the target is T3, hCPA4 (Homo sapiens, UniProt Q9UI42).
T3 sequence (Q9UI42 114-421): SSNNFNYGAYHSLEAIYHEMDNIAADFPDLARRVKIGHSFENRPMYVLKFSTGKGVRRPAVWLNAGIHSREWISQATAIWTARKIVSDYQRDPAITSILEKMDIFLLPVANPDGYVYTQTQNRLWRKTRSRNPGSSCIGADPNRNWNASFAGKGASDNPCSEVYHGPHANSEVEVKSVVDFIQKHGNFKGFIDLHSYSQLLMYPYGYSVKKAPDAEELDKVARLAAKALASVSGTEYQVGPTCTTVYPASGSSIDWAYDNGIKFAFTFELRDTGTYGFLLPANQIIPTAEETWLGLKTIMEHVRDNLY
The assay is described as above. It is filed as biochemical. Particulars: tight-binding equation fit, equilibrium conditions; substrate AAFP 0.1mM, 20mM Tris-HCl pH 7.5, 500mM NaCl; preincubation 15 min; 37 °C; means (n = 3) ± SD. As for the experimental part: as §1, §2

Another assay has as its target T4, hCPA1 (Homo sapiens, UniProt P15085).
T4 sequence (P15085 111-419): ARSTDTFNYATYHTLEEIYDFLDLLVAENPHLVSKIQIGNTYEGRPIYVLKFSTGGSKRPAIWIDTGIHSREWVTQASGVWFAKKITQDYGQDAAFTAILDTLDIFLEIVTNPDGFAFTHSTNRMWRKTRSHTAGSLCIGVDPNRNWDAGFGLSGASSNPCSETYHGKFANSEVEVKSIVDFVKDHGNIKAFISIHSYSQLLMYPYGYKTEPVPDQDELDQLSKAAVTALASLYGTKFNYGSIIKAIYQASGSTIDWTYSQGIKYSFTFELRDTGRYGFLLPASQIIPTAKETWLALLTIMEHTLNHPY
The assay is described as above. The format is biochemical. Particulars: tight-binding equation fit, equilibrium conditions; substrate AAFP 0.1mM, 20mM Tris-HCl pH 7.5, 500mM NaCl; preincubation 15 min; 37 °C; means (n = 3) ± SD. Here is the method:
as §1, §2

In assay [2] the target is T5, hTAFI (Homo sapiens (Human), UniProt Q96IY4).
T5 chain: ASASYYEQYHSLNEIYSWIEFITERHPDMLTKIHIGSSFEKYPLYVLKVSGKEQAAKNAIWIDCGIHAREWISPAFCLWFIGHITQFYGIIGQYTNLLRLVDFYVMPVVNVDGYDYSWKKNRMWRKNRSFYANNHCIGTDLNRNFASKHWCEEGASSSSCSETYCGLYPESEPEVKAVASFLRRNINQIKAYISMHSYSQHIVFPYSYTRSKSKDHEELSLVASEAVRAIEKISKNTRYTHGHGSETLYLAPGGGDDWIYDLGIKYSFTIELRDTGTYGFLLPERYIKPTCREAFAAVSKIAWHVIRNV
The assay can be described thus: Ki, residual activity.

Results on two molecules are retold here after PMC6780499, “Characterization, Recombinant Production and Structure-Function Analysis of NvCI, A Picomolar Metallocarboxypeptidase Inhibitor from the Marine Snail Nerita versicolor” (Marine Drugs, 2019).

No end group written: not given here.

Take “NvCI: 53-residue, three-disulphide proteinaceous metallocarboxypeptidase inhibitor from the marine snail Nerita versicolor; major isoform; UniProt P86912 (FHVPDDRPCINPGRCPLVPDATCTFVCKAADNDFGYECQHVWTFEGQRVGCYA; disulfide (positions not given here); also: three disulphides, pairing not given here; UniProt P86912 1-53, looked up)”: the Ki with hTAFI [1] stood at 0.393 ± 0.0219 nM; in the assay with pCPB, 0.65 ± 0.0122 nM; with hCPA4, 9.7 ± 1 pM; in the assay with hCPA1, 1.8 ± 0.2 pM.

B1: NvCI (protein)
chain: FHVPDDRPCINPGRCPLVPDATCTFVCKAADNDFGYECQHVWTFEGQRVGCYA
modifications: disulfide (positions not given here); not fully specified (bridges); ends not checked
In the assay with hTAFI [2], B1 had a Kd of 0.951 nM.
